Test results as given in the nanobody polyreactivity screen of Harvey et al. (2022).

Assay: yeast display, Sf9 membrane polyspecificity reagent, FACS + sequencing; frameworks hold sequencing errors
Summary of the method: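 Sorting gates, low and high (top ~1%), were placed on anti-HA fluorescence to track expression and on streptavidin fluorescence to track reagent binding. A clone's polyreactivity label is taken from the gate it came out of. The reagent was 10% biotinylated, detergent-solubilized Sf9 membrane, applied for 1 hour at 4 °C to galactose-induced yeast display cells.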

Row | Sequence | polyreactivity (PSR sort gate)
1 | QVQLVESGGGLVQAGGSLRLSCAASGSIFGYYAMGWYRQAPGKERELVAVITRSGGSTYYADSVKGRFTISRDNAKNTVYLQMNSLKPEDTAVYYSNAKSDYGYKMYYWGQGTQVTVSS | high polyreactivity
2 | QVQLVESGGGLVQAGGSLRLSCAASGSIFGYYAMGWYRQAPGKERELVAVITSSGGGTYYADSVKGRFTISRDNAKNTVYLQMNSLKPEDTAVYYCAKLGTRRYDSWGQGTQVTVSS | high polyreactivity
3 | QVQLVESGGGLVQAGGSLRLSCAASGSIFGYYGMGWYRQAPGKERELVATITSGGSTNYADSVKGRFTISRDNAKNTVYLQMNSLKPEDTAVYYCARQYGYQPERYGYWGQGTQVTVSS | low polyreactivity
4 | QVQLVESGGGLVQAGGSLRLSCAASGSIFGYYTMGWYRQAPGKERELVATITSGGSTYYADSVKGRFTISRDNAKNTDYLQMNSLKPEDTAVYYCNARTAQNVVLYDFGYWGQGTQVTVSS | high polyreactivity
5 | QVQLVESGGGLVQAGGSLRLSCAASGSIFHAYAMGWYRQAPGKERELVAAINRGGRTNYADSVKGRFTISRDNAKNTVYLQMNSLKPEDTAVYYCAASYRWVTDKTHYYWGQGTQVTVSS | low polyreactivity
6 | QVQLVESGGGLVQAGGSLRLSCAASGSIFHDNAMGWYRQAPGKERELVAAINRGGSTHYADSVKGRFTISRDNAKNTVYLQMNSLKPEDTAVYYCAADGFRPEVGYWGQGTQVTVSS | low polyreactivity
7 | QVQLVESGGGLVQAGGSLRLSCAASGSIFHGNAMGWYRQAHGKERELVAVISDGGSTDYADSVKGRFTISRDNANNSVYLQMTSLKPEDTAVYYCNAAYDTQYFYRKHIYYLSGYDYWGQGTQVTVSS | low polyreactivity
8 | QVQLVESGGGLVQAGGSLRLSCAASGSIFHGYAMGWYRQAPGKERELVAAISSTGGSTYYADSVKGRFTISRDNAKNTVYLQMNSLKPEDTAVYYCAAYYYVGYRARRYDYWGQGTQVTVSS | high polyreactivity
9 | QVQLVESGGGLVQAGGSLRLSCAASGSIFHLYAMGWYRQAPGKERELVAAITWTGGSTYYADSVKGRFTISRDNAKNTVYLQMNSLKPEDTAVYYCAARQQVRLRPGPLYYYWGQGTQVTVSS | high polyreactivity
10 | QVQLVESGGGLVQAGGSLRLSCAASGSIFHPYGMGWYRQAPGKERELVAAITSSGGDTYYADSVKGRFTFSRDIAKNTVYLQMISLKPEDTAVYYCAATGLPGYYAYDYWGQGTQVTVSS | low polyreactivity
11 | QVQLVESGGGLVQAGGSLRLSCAASGSIFHPYTMGWYRQAPGKERELVAAISWSGGNTNYADSVKGRFTISRDNAKNTVYLQMNSLKPEDTAVYYCNKATNLSGGYDSWGQGTQVTVSS | low polyreactivity
12 | QVQLVESGGGLVQAGGSLRLSCAASGSIFHQYVMGWYRQAPGKERELVAAISIRGTRTYYADSVKGRFTISRDNAKNTVYLQMNSLKPEDTAVYYCAVSGGRLQGDYWGQGTQVTVSS | high polyreactivity
13 | QVQLVESGGGLVQAGGSLRLSCAASGSIFHSYAMGWYRQAPGKETELVASITASGDSTYYADSVKGRFTISRDNAKNTVYLQMNSLKPEDTAVYYCNTQAVYGGGEGGYDYWGQCTQVTVSS | low polyreactivity
14 | QVQLVESGGGLVQAGGSLRLSCAASGSIFHVYAMGWYRQAPGKERELVAAIDRSGGSTYYADSVKGRFTISRDNAKNTVYLQMNSLKPEDTAVYYCAKDVLGGQITDGVGNDYWGQGTQVTVSS | low polyreactivity
15 | QVQLVESGGGLVQAGGSLRLSCAASGSIFHWYTMGWYRQAPGKERELVATISAGGSTYYADSVKGRFKISRDNAKNTVYLQMNSLKPEDTAVYYCNRRVHGVYRWRRSDSWGQGTQVTVAS | high polyreactivity
16 | QVQLVESGGGLVQAGGSLRLSCAASGSIFIGNTMGWYRQAPGKERELVATIRRSGSRTYYADSVKGRFTISRDNAKNTVYLQMNSLKPEDTAVYYCAADRLRNSGYKTIYDYWGQGTQVTVSS | low polyreactivity
17 | QVQLVESGGGLVQAGGSLRLSCAASGSIFIGYAMGWYRQAPGKERELVAAISWSGDSTYYADSVKGRFTISRDNAKNTVYLQMNSLKPEDTAVYYCARDKWGLRYAPTVDYWGQGTQVTVSS | high polyreactivity
18 | QVQLVESGGGLVQAGGSLRLSCAASGSIFIGYGMGWYRQAPGKERELVAAITSGSITNYADSVKGRFTISRDNAKNTVYLQMNSLKPEDTAVYNCNADVNFIDDDYWGQGTQVTVSA | low polyreactivity
19 | QVQLVESGGGLVQAGGSLRLSCAASGSIFIINAMVWYRQAPGKERELVAAINNGVNTYYADSVKGRFTISRDNAKNTVYLQMNSLKPEDTAGYYCAADYGDPRVNEYDYWGQGTQVTVSS | low polyreactivity
20 | QVQLVESGGGLVQAGGSLRLSCAASGSIFINNMGWYRQAPGKERELVAAISNSGGRTYYADSVKGRFTISRDNAKNTVYLQMNSLKPEDTAVYYCAKKSNRLPYGYWGQGTQVTVSS | high polyreactivity
21 | QVQLVESGGGLVQAGGSLRLSCAASGSIFIPNAMGWYRQAPGKERELVAAIRSGGSTYYADSVKGRFTISRDNAKNTVYLQLLSLKPEDTAVYYCAADTYTYYYYLARYYYWGQGTQVTVSS | low polyreactivity
22 | QVQLVESGGGLVQAGGSLRLSCAASGSIFIQYDMGWYRQAPGKERELVATIRSCDSTTYADSVKGRFTISRDNAKNTVFLQVNSLKPEDTAVYYCAKDYRFDYDYDYWGQGTQVTVSS | low polyreactivity
23 | QVQLVESGGGLVQAGGSLRLSCAASGSIFIRNAMGWYRQAPGKERELVAAITSGGNTYYADSVKGRFTISRDNAKNTVYLQMNSLKPEDTAVYYCNAGRYYRHDYWGQGTQVTVSS | low polyreactivity
24 | QVQLVESGGGLVQAGGSLRLSCAASGSIFIRYAMGWYRQAPGKERELVAAITRSGGSTYYADSVKGRFTISRDNAKNTVYLQMNSLKPEDTAVYYCNVLLRRNGYFARGDYWGQGTQVTVSS | high polyreactivity
25 | QVQLVESGGGLVQAGGSLRLSCAASGSIFISYAMGWYRQAPGKERELVAAISSGGSTNYADSVKGRFTISRDNAKNTVYLQMNSLKPEDTAVYYCAADGWLWSFTGDGWWFVYWGQGTQVTVSS | low polyreactivity
26 | QVQLVESGGGLVQAGGSLRLSCAASGSIFISYAMGWYRQAPGKERELVAAITSGGRTNYADSVKGRFTISRDNAKNTVYLQMNSLKPEDTAVYYCAKRQSHSRKYDYWGQGTQVTVSS | low polyreactivity
27 | QVQLVESGGGLVQAGGSLRLSCAASGSIFIVNVMGWYRQAPGKERELVAGITTNGGITYYADSVKGRFTISRDNAKNTVYLQMNSLKPEDTAVYYCATRSASPSSIEMDYWGQGTQVTVSS | low polyreactivity
28 | QVQLVESGGGLVQAGGSLRLSCAASGSIFIWYAMGWYRQAPGKERELVATITSSGSTNYADSVKGRFTISRDNAKNTVYLQMNSLKPEDTAVYYCAKRGPLRHYSWGQGTQVTVSS | low polyreactivity
29 | QVQLVESGGGLVQAGGSLRLSCAASGSIFIYNAMGWYRQAPGKERELVAAISSSGGSTYYADSVKGRFTISRDNAKNTVYLQMNSLKPVDTAVYYCAARTYYVRGLGGRPGMDYWGQGTQVTVSS | low polyreactivity
30 | QVQLVESGGGLVQAGGSLRLSCAASGSIFIYYAMGWYRHAPGKERELDAAISNGGSTNYADSVKGRFTISRDNGKNTVYLQLNRLKPEDTAVYYCNARLERTPSLYLYGSWGQGTQVTVSS | low polyreactivity
